From the supplement of paper PMC9112550, “Optimization of the antimicrobial peptide Bac7 by deep mutational scanning” (BMC Biology, 2022)

The sequences below were run on Escherichia coli TOP10 (assay: shrunken log2 fold change of peptide-encoding DNA abundance (4.5 h post-induction vs induction); higher = less antimicrobial activity (less host growth inhibition)). Conditions: time post-induction: 4.5 h; library: site-saturation at positions 5, 18, 19, 20.
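Further: peptides expressed intracellularly from a pBAD plasmid library in pooled LB shake-flask culture, induced with 0.3% L-arabinose, DNA abundance read by NGS, three biological replicates, DESeq2 with apeglm shrinkage.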

RRIRARPPRLPRPRPRPNESPRP and RRIRVRPPRLPRPRPRPACTPRP are within 0.2 log units of each other in “shrunken log2 fold change” value: 0.102 for the first, -0.0478 for the second.

Going from RRIRLRPPRLPRPRPRPTIIPRP to RRIRDRPPRLPRPRPRPLAQPRP, the “shrunken log2 fold change” value rises from 0.0804 to 0.83.

First: RRIRVRPPRLPRPRPRPYAVPRP
Second: RRIRMRPPRLPRPRPRPIVQPRP
The “shrunken log2 fold change” value of the first is lower: -0.481 for the first, -0.0131 for the second.

RRIRLRPPRLPRPRPRPMQRPRP and RRIRARPPRLPRPRPRPQAKPRP are within 0.2 log units of each other in “shrunken log2 fold change” value: 0.0784 for the first, 0.0548 for the second.

First: RRIRSRPPRLPRPRPRPANWPRP
Second: RRIRNRPPRLPRPRPRPYHRPRP
The “shrunken log2 fold change” value of the first is higher: 0.343 for the first, -0.121 for the second.

Compared with RRIRVRPPRLPRPRPRPVHKPRP, RRIRRRPPRLPRPRPRPYRGPRP is lower in “shrunken log2 fold change” value: 0.129 for the first, -0.191 for the second.

RRIRPRPPRLPRPRPRPICSPRP and RRIRCRPPRLPRPRPRPEFCPRP are within 0.2 log units of each other in “shrunken log2 fold change” value: -0.014 for the first, 0.0369 for the second.

Compared with RRIRVRPPRLPRPRPRPWGDPRP, RRIRTRPPRLPRPRPRPTENPRP is lower in “shrunken log2 fold change” value: 0.148 for the first, -0.293 for the second.

First: RRIRVRPPRLPRPRPRPPMRPRP
Second: RRIRIRPPRLPRPRPRPRSPPRP
The “shrunken log2 fold change” value of the first is higher: 1.24 for the first, 0.0527 for the second.

RRIRSRPPRLPRPRPRPEMDPRP and RRIRTRPPRLPRPRPRPDHQPRP are within 0.2 log units of each other in “shrunken log2 fold change” value: -0.0847 for the first, -0.0261 for the second.

RRIRKRPPRLPRPRPRPQNPPRP and RRIRERPPRLPRPRPRPHEVPRP are within 0.2 log units of each other in “shrunken log2 fold change” value: 0.0671 for the first, -0.0812 for the second.

Compared with RRIRTRPPRLPRPRPRPLACPRP, RRIRGRPPRLPRPRPRPWVDPRP is higher in “shrunken log2 fold change” value: 0.0365 for the first, 0.308 for the second.

First: RRIRCRPPRLPRPRPRPSARPRP
Second: RRIRNRPPRLPRPRPRPVYPPRP
The “shrunken log2 fold change” value of the first is higher: 0.16 for the first, -0.341 for the second.

RRIRHRPPRLPRPRPRPHQFPRP and RRIRMRPPRLPRPRPRPCDMPRP are within 0.2 log units of each other in “shrunken log2 fold change” value: 0.0262 for the first, 0.195 for the second.

RRIRKRPPRLPRPRPRPDCDPRP and RRIRCRPPRLPRPRPRPFAYPRP are within 0.2 log units of each other in “shrunken log2 fold change” value: 0.095 for the first, 0.00718 for the second.

RRIRRRPPRLPRPRPRPRITPRP and RRIRHRPPRLPRPRPRPGGMPRP are within 0.2 log units of each other in “shrunken log2 fold change” value: 0.186 for the first, 0.274 for the second.

First: RRIRWRPPRLPRPRPRPMIDPRP
Second: RRIRGRPPRLPRPRPRPWFHPRP
The “shrunken log2 fold change” value of the first is lower: -0.579 for the first, -0.121 for the second.

RRIRARPPRLPRPRPRPPMVPRP and RRIRYRPPRLPRPRPRPIHEPRP are within 0.2 log units of each other in “shrunken log2 fold change” value: 0.0322 for the first, 0.00548 for the second.

First: RRIRKRPPRLPRPRPRPEIGPRP
Second: RRIRARPPRLPRPRPRPTNFPRP
The “shrunken log2 fold change” value of the first is higher: 0.191 for the first, -0.0105 for the second.

RRIRSRPPRLPRPRPRPGVIPRP and RRIRKRPPRLPRPRPRPCAFPRP are within 0.2 log units of each other in “shrunken log2 fold change” value: -0.0412 for the first, 0.0922 for the second.

Going from RRIRSRPPRLPRPRPRPAILPRP to RRIRGRPPRLPRPRPRPSDEPRP, the “shrunken log2 fold change” value rises from -0.313 to 0.178.

Going from RRIRIRPPRLPRPRPRPYMTPRP to RRIRTRPPRLPRPRPRPMPDPRP, the “shrunken log2 fold change” value rises from -1.6 to -0.0705.

RRIRERPPRLPRPRPRPYSPPRP and RRIRLRPPRLPRPRPRPCQPPRP are within 0.2 log units of each other in “shrunken log2 fold change” value: -0.0774 for the first, -0.0919 for the second.

Compared with RRIRHRPPRLPRPRPRPVCNPRP, RRIRARPPRLPRPRPRPTKAPRP is higher in “shrunken log2 fold change” value: -0.761 for the first, 0.437 for the second.

Going from RRIRERPPRLPRPRPRPRCQPRP to RRIRDRPPRLPRPRPRPKCSPRP, the “shrunken log2 fold change” value rises from -0.0986 to 0.243.

First: RRIRLRPPRLPRPRPRPSIVPRP
Second: RRIRNRPPRLPRPRPRPAMTPRP
The “shrunken log2 fold change” value of the first is lower: -0.294 for the first, 0.157 for the second.

RRIRLRPPRLPRPRPRPNHQPRP and RRIRRRPPRLPRPRPRPFNMPRP are within 0.2 log units of each other in “shrunken log2 fold change” value: -0.19 for the first, -0.362 for the second.

Going from RRIRQRPPRLPRPRPRPDTPPRP to RRIRIRPPRLPRPRPRPTNRPRP, the “shrunken log2 fold change” value falls from -0.039 to -0.326.

Going from RRIRMRPPRLPRPRPRPLHYPRP to RRIRFRPPRLPRPRPRPKHSPRP, the “shrunken log2 fold change” value falls from -0.173 to -0.434.

RRIRARPPRLPRPRPRPTGPPRP and RRIRGRPPRLPRPRPRPNWKPRP are within 0.2 log units of each other in “shrunken log2 fold change” value: 0.284 for the first, 0.332 for the second.

RRIRSRPPRLPRPRPRPKARPRP and RRIRQRPPRLPRPRPRPKVPPRP are within 0.2 log units of each other in “shrunken log2 fold change” value: 0.0932 for the first, 0.105 for the second.

Going from RRIRDRPPRLPRPRPRPVHDPRP to RRIRDRPPRLPRPRPRPEVKPRP, the “shrunken log2 fold change” value falls from 0.19 to -0.0257.

Going from RRIRERPPRLPRPRPRPEACPRP to RRIRARPPRLPRPRPRPALSPRP, the “shrunken log2 fold change” value rises from -0.0166 to 0.628.

Compared with RRIRSRPPRLPRPRPRPFCSPRP, RRIRGRPPRLPRPRPRPRQRPRP is higher in “shrunken log2 fold change” value: -0.212 for the first, 0.815 for the second.

RRIRNRPPRLPRPRPRPCMDPRP and RRIRNRPPRLPRPRPRPWWDPRP are within 0.2 log units of each other in “shrunken log2 fold change” value: -0.129 for the first, -0.00674 for the second.

RRIRWRPPRLPRPRPRPGIWPRP and RRIRYRPPRLPRPRPRPLDWPRP are within 0.2 log units of each other in “shrunken log2 fold change” value: 0.217 for the first, 0.171 for the second.

RRIRPRPPRLPRPRPRPHVQPRP and RRIRQRPPRLPRPRPRPIGSPRP are within 0.2 log units of each other in “shrunken log2 fold change” value: -0.0151 for the first, -0.00968 for the second.

RRIRPRPPRLPRPRPRPQQNPRP and RRIRNRPPRLPRPRPRPSSAPRP are within 0.2 log units of each other in “shrunken log2 fold change” value: 0.076 for the first, -0.0956 for the second.

RRIRIRPPRLPRPRPRPQGIPRP and RRIRYRPPRLPRPRPRPRHQPRP are within 0.2 log units of each other in “shrunken log2 fold change” value: -0.012 for the first, -0.111 for the second.

First: RRIRPRPPRLPRPRPRPIRRPRP
Second: RRIRVRPPRLPRPRPRPGVMPRP
The “shrunken log2 fold change” value of the first is higher: -0.0359 for the first, -0.261 for the second.

RRIRNRPPRLPRPRPRPVHWPRP and RRIRPRPPRLPRPRPRPRSCPRP are within 0.2 log units of each other in “shrunken log2 fold change” value: 0.384 for the first, 0.395 for the second.

Compared with RRIRYRPPRLPRPRPRPAWIPRP, RRIRNRPPRLPRPRPRPRTRPRP is higher in “shrunken log2 fold change” value: -0.259 for the first, 0.368 for the second.

RRIRYRPPRLPRPRPRPDENPRP and RRIRSRPPRLPRPRPRPHEKPRP are within 0.2 log units of each other in “shrunken log2 fold change” value: -0.0185 for the first, 0.0101 for the second.

Compared with RRIRYRPPRLPRPRPRPNSIPRP, RRIRHRPPRLPRPRPRPFQMPRP is higher in “shrunken log2 fold change” value: -0.737 for the first, -0.0675 for the second.

Going from RRIRVRPPRLPRPRPRPSWHPRP to RRIRFRPPRLPRPRPRPIFDPRP, the “shrunken log2 fold change” value falls from -0.00555 to -0.268.

RRIRSRPPRLPRPRPRPTESPRP and RRIRMRPPRLPRPRPRPYASPRP are within 0.2 log units of each other in “shrunken log2 fold change” value: 0.0325 for the first, -0.0515 for the second.

Compared with RRIRQRPPRLPRPRPRPNDPPRP, RRIRYRPPRLPRPRPRPRIPPRP is lower in “shrunken log2 fold change” value: -0.0265 for the first, -0.353 for the second.

Going from RRIRCRPPRLPRPRPRPRAAPRP to RRIRWRPPRLPRPRPRPTVRPRP, the “shrunken log2 fold change” value rises from 0.779 to 1.14.

RRIRSRPPRLPRPRPRPVAIPRP and RRIRDRPPRLPRPRPRPIKWPRP are within 0.2 log units of each other in “shrunken log2 fold change” value: -0.28 for the first, -0.147 for the second.

Going from RRIRHRPPRLPRPRPRPIVIPRP to RRIRTRPPRLPRPRPRPDWAPRP, the “shrunken log2 fold change” value rises from -0.158 to 0.327.

Compared with RRIRARPPRLPRPRPRPCFDPRP, RRIRIRPPRLPRPRPRPHRYPRP is lower in “shrunken log2 fold change” value: 0.191 for the first, -0.171 for the second.

With RRIRTRPPRLPRPRPRPWNLPRP the “shrunken log2 fold change” value was -0.031.
